Results on 6 molecules are retold here after patent US20030100069A1 (Human Genome Sciences, published 2003).

In test [1] the target is T1, F-TR8-615 (FLAG epitope-tagged TR8, residues 33-615 of FIGS. 1A-C) (human) (UniProt Q9Y6Q6).
T1 sequence: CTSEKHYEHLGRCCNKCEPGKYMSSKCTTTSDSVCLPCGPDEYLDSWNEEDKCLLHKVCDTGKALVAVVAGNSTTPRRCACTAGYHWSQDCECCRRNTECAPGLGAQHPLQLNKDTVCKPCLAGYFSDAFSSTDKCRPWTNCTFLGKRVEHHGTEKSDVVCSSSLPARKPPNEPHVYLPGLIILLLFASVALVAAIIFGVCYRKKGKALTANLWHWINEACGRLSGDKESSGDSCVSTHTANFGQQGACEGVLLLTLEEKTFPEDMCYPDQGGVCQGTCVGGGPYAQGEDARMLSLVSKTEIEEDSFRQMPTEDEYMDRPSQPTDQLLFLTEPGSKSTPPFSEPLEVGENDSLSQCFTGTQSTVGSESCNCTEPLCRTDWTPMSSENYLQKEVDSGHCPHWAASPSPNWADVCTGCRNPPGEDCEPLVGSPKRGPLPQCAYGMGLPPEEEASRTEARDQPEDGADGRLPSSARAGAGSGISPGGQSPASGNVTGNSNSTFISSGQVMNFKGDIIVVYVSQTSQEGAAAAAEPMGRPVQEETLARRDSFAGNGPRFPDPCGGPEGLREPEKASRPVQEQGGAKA
The test can be described thus: anti-FLAG co-immunoprecipitation of 35S-labeled TRAF from 293 lysates, PhosphorImager quantitation.

Test [2] concerns the target T2, endogenous TRAF2 (of HeLa and 293 cells) (human, UniProt Q12933 2-501).
T2 construct: 293 is called a human embryonic kidney cell line; HeLa is a human line; Detected by western blot with anti-TRAF2 polyclonal antibodies; also called TNF receptor-associated factor 2
T2 sequence (looked up): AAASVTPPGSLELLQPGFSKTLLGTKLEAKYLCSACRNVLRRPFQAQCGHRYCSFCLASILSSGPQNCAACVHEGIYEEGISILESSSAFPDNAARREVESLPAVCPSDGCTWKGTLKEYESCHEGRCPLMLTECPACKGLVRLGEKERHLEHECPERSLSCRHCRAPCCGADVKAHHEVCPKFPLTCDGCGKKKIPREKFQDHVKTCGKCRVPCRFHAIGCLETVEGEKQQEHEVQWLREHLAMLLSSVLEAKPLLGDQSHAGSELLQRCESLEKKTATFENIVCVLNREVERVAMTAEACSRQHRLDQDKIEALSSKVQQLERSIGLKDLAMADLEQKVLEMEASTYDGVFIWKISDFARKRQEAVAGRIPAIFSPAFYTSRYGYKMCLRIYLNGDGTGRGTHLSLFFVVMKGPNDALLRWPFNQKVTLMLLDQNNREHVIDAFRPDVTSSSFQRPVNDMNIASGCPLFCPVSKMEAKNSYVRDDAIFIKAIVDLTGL
The test can be described thus: anti-FLAG co-immunoprecipitation from HeLa and 293 lysates, anti-TRAF2 western blot. As to the method:
Immunoprecipitations and JNK Kinase Assays—From transient transfected cells, lysates were prepared and immunoprecipitated using anti-FLAG-conjugated agarose or anti-JNK1 and protein A/G sepharose for 1 hr. Where indicated, ³⁵S-labeled proteins were added to the lysate prior to immunoprecipitation. Beads were collected by centrifugation and washed four times in lysis buffer followed by two washes in kinase buffer (20 mM TRIS, pH 8, 50 mM NaCl, and 1 mM DTT). For coimmunoprecipation, proteins were eluted in SDS-sample buffer, boiled, and subjected to SDS-PAGE. Analysis of JNK activity was performed using exogenously added GST-Jun(1-79) as a substrate as previously described (Haridas et al., J. Immunol. 160:3152-3162 (1998)). Quantitation of JNK activity and ³⁵S-labeled TRAF binding was analyzed using a PhosphoImager and Imagequant Software (Molecular Dynamics, Sunnyvale, Calif.).
TRAF2, TRAF5, and TRAF6 Interact with the C-Terminus of TR8—Since most of the TNFR family members utilize TRAFs as signaling components and that TR8 contains putative TRAF binding domains, we examined the ability for TR8 to interact with various TRAFs. […] After 24-36 hr, cell lysates were prepared and epitope-tagged receptors were immunoprecipitated with anti-FLAG conjugated-agarose. Coprecipitation of endogenous TRAF2 was detected by western blotting with anti-TRAF2 polyclonal antibodies. […] Membranes were also probed with anti-FLAG to insure precipitation of epitope-tagged receptors (data not shown).
(Immunoblotting shows a protein as a band on a membrane.)

In test [1], in vitro translated 35S-labeled TRAF5 had a fold increase in binding relative to vector transfected cells of 11 fold.

In turn, in vitro translated 35S-labeled TRAF6 had a fold increase in binding relative to vector transfected cells in test [1] of 5 fold.

B1: F-TR8-330 (FLAG-tagged TR8 C-terminal deletion lacking 285 amino acids) (receptor, not shown: small tags and cut ends)
chain: CTSEKHYEHLGRCCNKCEPGKYMSSKCTTTSDSVCLPCGPDEYLDSWNEEDKCLLHKVCDTGKALVAVVAGNSTTPRRCACTAGYHWSQDCECCRRNTECAPGLGAQHPLQLNKDTVCKPCLAGYFSDAFSSTDKCRPWTNCTFLGKRVEHHGTEKSDVVCSSSLPARKPPNEPHVYLPGLIILLLFASVALVAAIIFGVCYRKKGKALTANLWHWINEACGRLSGDKESSGDSCVSTHTANFGQQGACEGVLLLTLEEKTFPEDMCYPDQGGVCQGTCVGGGPYAQGEDARMLSLVS
notes: The C-terminal limit is inferred from the construct name and the stated deletion of 285 residues; also called F-TR8 deletion mutant
With B1, in test [2], the binding result is on record as “no binding”.

B2: F-TR8-530 (FLAG-tagged TR8 C-terminal deletion lacking 85 amino acids) (receptor, not shown: small tags and cut ends)
chain: CTSEKHYEHLGRCCNKCEPGKYMSSKCTTTSDSVCLPCGPDEYLDSWNEEDKCLLHKVCDTGKALVAVVAGNSTTPRRCACTAGYHWSQDCECCRRNTECAPGLGAQHPLQLNKDTVCKPCLAGYFSDAFSSTDKCRPWTNCTFLGKRVEHHGTEKSDVVCSSSLPARKPPNEPHVYLPGLIILLLFASVALVAAIIFGVCYRKKGKALTANLWHWINEACGRLSGDKESSGDSCVSTHTANFGQQGACEGVLLLTLEEKTFPEDMCYPDQGGVCQGTCVGGGPYAQGEDARMLSLVSKTEIEEDSFRQMPTEDEYMDRPSQPTDQLLFLTEPGSKSTPPFSEPLEVGENDSLSQCFTGTQSTVGSESCNCTEPLCRTDWTPMSSENYLQKEVDSGHCPHWAASPSPNWADVCTGCRNPPGEDCEPLVGSPKRGPLPQCAYGMGLPPEEEASRTEARDQPEDGADGRLPSSARAGAGSGISPGGQSPASGNVTGNSNS
notes: also called F-TR8 deletion mutant
For the molecule B2, the binding result in test [2] was “no binding”.

B3: F-TR8-427 (FLAG-tagged TR8 C-terminal deletion lacking 188 amino acids) (receptor, not shown: small tags and cut ends)
chain: CTSEKHYEHLGRCCNKCEPGKYMSSKCTTTSDSVCLPCGPDEYLDSWNEEDKCLLHKVCDTGKALVAVVAGNSTTPRRCACTAGYHWSQDCECCRRNTECAPGLGAQHPLQLNKDTVCKPCLAGYFSDAFSSTDKCRPWTNCTFLGKRVEHHGTEKSDVVCSSSLPARKPPNEPHVYLPGLIILLLFASVALVAAIIFGVCYRKKGKALTANLWHWINEACGRLSGDKESSGDSCVSTHTANFGQQGACEGVLLLTLEEKTFPEDMCYPDQGGVCQGTCVGGGPYAQGEDARMLSLVSKTEIEEDSFRQMPTEDEYMDRPSQPTDQLLFLTEPGSKSTPPFSEPLEVGENDSLSQCFTGTQSTVGSESCNCTEPLCRTDWTPMSSENYLQKEVDS
notes: The C-terminal limit is inferred from the construct name and the stated deletion of 188 residues; also called F-TR8 deletion mutant
With B3, the binding result in test [2] was “no binding”.

B4: in vitro translated 35S-labeled TRAF2 (protein, UniProt Q12933 2-501, looked up, species assumed)
TNF receptor-associated factor 2: AAASVTPPGSLELLQPGFSKTLLGTKLEAKYLCSACRNVLRRPFQAQCGHRYCSFCLASILSSGPQNCAACVHEGIYEEGISILESSSAFPDNAARREVESLPAVCPSDGCTWKGTLKEYESCHEGRCPLMLTECPACKGLVRLGEKERHLEHECPERSLSCRHCRAPCCGADVKAHHEVCPKFPLTCDGCGKKKIPREKFQDHVKTCGKCRVPCRFHAIGCLETVEGEKQQEHEVQWLREHLAMLLSSVLEAKPLLGDQSHAGSELLQRCESLEKKTATFENIVCVLNREVERVAMTAEACSRQHRLDQDKIEALSSKVQQLERSIGLKDLAMADLEQKVLEMEASTYDGVFIWKISDFARKRQEAVAGRIPAIFSPAFYTSRYGYKMCLRIYLNGDGTGRGTHLSLFFVVMKGPNDALLRWPFNQKVTLMLLDQNNREHVIDAFRPDVTSSSFQRPVNDMNIASGCPLFCPVSKMEAKNSYVRDDAIFIKAIVDLTGL
modifications: 35S-labeled
In turn, B4 had a fold increase in binding relative to vector transfected cells in test [1] of 145 fold.
